Results on 10 molecules are retold here after PMC3846889, “Interacting Proteins on Human Spermatozoa: Adaptive Evolution of the Binding of Semenogelin I to EPPIN” (PLoS ONE, 2013).

T1: biotinylated SEMG1^214-42 (human, UniProt P04279-1 26-281, biotin (biotinylated as in ref. 23; sites not stated))
T1 construct: semenogelin I (SEMG1), human, residues G26-R281; The same construct as m2, biotinylated; also called bt-SEMG1; source: E. coli BL21 Star (DE3), purified under denaturing conditions (Ni-NTA), then biotinylated
T1 sequence (looked up): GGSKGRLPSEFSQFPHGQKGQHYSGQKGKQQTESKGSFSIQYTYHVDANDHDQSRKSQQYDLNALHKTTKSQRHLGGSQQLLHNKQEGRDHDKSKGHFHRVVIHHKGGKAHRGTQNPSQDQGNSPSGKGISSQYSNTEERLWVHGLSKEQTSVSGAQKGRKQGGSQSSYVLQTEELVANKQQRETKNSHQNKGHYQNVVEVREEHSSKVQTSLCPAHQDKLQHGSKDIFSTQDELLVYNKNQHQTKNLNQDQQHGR

B1: recombinant SEMG1^74-8 (residues R165-Q247) (domain or fragment, human, UniProt P04279-1 165-247, looked up)
chain: RLWVHGLSKEQTSVSGAQKGRKQGGSQSSYVLQTEELVANKQQRETKNSHQNKGHYQNVVEVREEHSSKVQTSLCPAHQDKLQ
notes: semenogelin I (SEMG1), human, residues R165-Q247, in pET100/D-TOPO; also called fragment 74-8; source: E. coli BL21 Star (DE3), purified under denaturing conditions (Ni-NTA); not shown: His6, N-terminal, kept
B2: recombinant SEMG1^32-8 (residues Q207-Q247) (domain or fragment, human, UniProt P04279-1 207-247, looked up)
chain: QRETKNSHQNKGHYQNVVEVREEHSSKVQTSLCPAHQDKLQ
B3: recombinant SEMG1^74-42 (residues R165-R281) (domain or fragment, human, UniProt P04279-1 165-281, looked up)
chain: RLWVHGLSKEQTSVSGAQKGRKQGGSQSSYVLQTEELVANKQQRETKNSHQNKGHYQNVVEVREEHSSKVQTSLCPAHQDKLQHGSKDIFSTQDELLVYNKNQHQTKNLNQDQQHGR
notes: semenogelin I (SEMG1), human, residues R165-R281, in pET100/D-TOPO; source: E. coli BL21 Star (DE3), purified under denaturing conditions (Ni-NTA); not shown: His6, N-terminal, kept
B4: human recombinant EPPIN (residues P22-P133) (domain or fragment)
chain: not shown
notes: EPPIN, human, residues P22-P133, cloned into pET100/D-TOPO; also called tag-free EPPIN; source: E. coli Rosetta-Gami 2 (DE3), purified under denaturing conditions (Ni-NTA); 6X His-tag removed with enterokinase; not shown: His6, N-terminal, cleaved
B5: human recombinant SEMG1^214-42 (wild-type, residues G26-R281) (domain or fragment, UniProt P04279-1 26-281, looked up)
chain: T1 sequence (looked up)
notes: semenogelin I (SEMG1), human, residues G26-R281, cloned into pET100/D-TOPO; also called his-SEMG1; semenogelin I fragment G26-R281; source: E. coli BL21 Star (DE3), purified under denaturing conditions (Ni-NTA); not shown: His6, N-terminal, kept
B6: C239G-SEMG1^214-42 (domain or fragment, human, UniProt P04279-1 26-281, looked up)
chain: T1 sequence (looked up) with C214G
notes: semenogelin I (SEMG1), human, residues G26-R281 with C239G; Point mutant of m2; source: E. coli BL21 Star (DE3), purified under denaturing conditions (Ni-NTA); not shown: His6, N-terminal, kept
B7: C239R-SEMG1^214-42 (domain or fragment, human, UniProt P04279-1 26-281, looked up)
chain: T1 sequence (looked up) with C214R
notes: semenogelin I (SEMG1), human, residues G26-R281 with C239R (Arg239 is the residue of Macaca mulatta and Papio anubis); Point mutant of m2; source: E. coli BL21 Star (DE3), purified under denaturing conditions (Ni-NTA); not shown: His6, N-terminal, kept
B8: C239S-SEMG1^214-42 (domain or fragment, human, UniProt P04279-1 26-281, looked up)
chain: T1 sequence (looked up) with C214S
notes: semenogelin I (SEMG1), human, residues G26-R281 with C239S; Point mutant of m2; source: E. coli BL21 Star (DE3), purified under denaturing conditions (Ni-NTA); not shown: His6, N-terminal, kept
B9: C239D-SEMG1^214-42 (domain or fragment, human, UniProt P04279-1 26-281, looked up)
chain: T1 sequence (looked up) with C214D
notes: semenogelin I (SEMG1), human, residues G26-R281 with C239D; Point mutant of m2; source: E. coli BL21 Star (DE3), purified under denaturing conditions (Ni-NTA); not shown: His6, N-terminal, kept
B10: C239H-SEMG1^214-42 (domain or fragment, human, UniProt P04279-1 26-281, looked up)
chain: T1 sequence (looked up) with C214H
notes: semenogelin I (SEMG1), human, residues G26-R281 with C239H (His239 is the Gorilla residue); Point mutant of m2; source: E. coli BL21 Star (DE3), purified under denaturing conditions (Ni-NTA); not shown: His6, N-terminal, kept

For assay [1], the target named is B4. The assay is described as follows: AlphaScreen or HTRF; competition: EPPIN (10 nM) and bt-SEMG1^214-42 (1 nM) with increasing SEMG1 competitor (10 pM - 8 µM), 30 µl, 15 µg/ml beads; as in ref. 23. The note with it: both partners purified. (In Alpha technology, singlet oxygen from a donor bead excites a nearby acceptor bead.)
Assay [2] addresses B4. Description: cell-based or functional assay.
For assay [3], the target named is T1, biotinylated SEMG1^214-42. The assay is described as follows: AlphaScreen or HTRF; competition: EPPIN (10 nM) and bt-SEMG1^214-42 (1 nM) with increasing SEMG1 competitor (10 pM - 8 µM), 30 µl, 15 µg/ml beads; as in ref. 23. The note with it: both partners purified.
The target of assay [4] is B4. Description: AlphaScreen or HTRF; direct binding, concentration-response: EPPIN (29 nM) on anti-EPPIN Q20E antibody (2 nM) and Protein A acceptor beads; His-tagged SEMG1 construct (0.04-7.5 µM) on Ni-NTA-chelate donor beads; 10 µg/ml beads, 30 µl; EC50 from the specific signal after 16 h. The note with it: both partners purified.

Broadly, the IC50 is the point on the concentration scale where inhibition reaches its midpoint. Usually EC50 stands for the concentration needed to bring the measured effect to its halfway point.

Numbering of substitutions follows the chain as printed. Names and notes keep the numbering of the source.

As to B1, in assay [1], the IC50 came to 385 nM. For B2, in assay [2], the “inhibition of human sperm motility (normalized iRMI by CASA), concentration-response, EC50” value is 1750 nM. Turning to B3, the IC50 in assay [1] is 124 nM. Further, the “inhibition of human sperm motility (normalized iRMI by CASA), concentration-response, EC50” value in assay [2] came out at 3560 nM. As to B4, in assay [3], the binding result is listed as “binds”. Regarding B5, in assay [1], the half-inhibitory concentration (IC50) worked out at 8.1 nM. Also, in assay [2], the “inhibition of human sperm motility (normalized iRMI by CASA), concentration-response, EC50” value turned out to be 1690 nM. For the same molecule, the concentration for a half-maximal effect (EC50) in assay [4] amounted to 23.1 nM. Consider B6, for which the half-maximal effective concentration (EC50) in assay [4] came out at 83.3 nM. For the molecule B7, in assay [2], the “inhibition of human sperm motility (normalized iRMI by CASA), concentration-response, EC50” value worked out at 2210 nM. In addition, the EC50 in assay [4] was 461 nM. Consider B8, for which the concentration for a half-maximal effect (EC50) in assay [4] is 564 nM. Still for that read-out and setting: for B9 the value was 96.1 nM. Turning to B10, the “inhibition of human sperm motility (normalized iRMI by CASA), concentration-response, EC50” value in assay [2] came to 1080 nM. In assay [4], the EC50 was determined as 167 nM.
